Experimental data published in patent publication US20030220254A1, “Composition and method for preparation of an oral dual controlled release formulation of a protein and inhibitor” (TEXAS TECH UNIVERSITY SYSTEM, priority 2002, published 2003).
Like-named read-outs stand apart in the source and are kept apart here. Blank lines part the entries; values can stand above or below the molecule they belong to.

Columns and labels:
[1] = target: T1, α-chymotrypsin (Bos taurus, UniProt P00766); assay: α-chymotrypsin mediated degradation of insulin with inhibitors (HPLC); assay type: biochemical
Method: (§1) Stability studies in the presence of chicken and duck ovomucoid were conducted. […] The degradation profiles were generated in the presence of 0.1 μM α-chymotrypsin and 0.5 μM trypsin over a period of 60 minutes that served as controls. These concentrations were selected based on a reported study (Schilling & Mitra 1991).
(§2) Samples were taken at 0, 5, 15, 30 and 60 minutes and immediately diluted with cold 1% TFA/TRIS to reduce the pH to 2.5. The samples were analyzed at 4° C. by a reverse-phase HPLC method using a Varian Chromatography Workstation. […] Similar studies were performed with aprotinin.
The protocol used was the same as above with minor modifications. […] The degradation profiles were generated in the presence of α-chymotrypsin and DkOVM. The enzyme to inhibitor ratio used was 1:1 with respect to α-chymotrypsin.

[2] = in vitro; settings: male, Sprague Dawley, rat, pH 7.4
Text: (§3) Male Sprague Dawley rats weighing between 200-300 g were used for the permeability experiments. The intestine was excised and the jejunum was isolated by a reported method (Asada et al. 1995). Briefly, the duodenal and ileal segments were removed from top and bottom (13 cm on either side) and the residual intestine was designated as jejunum. The respective segments were mounted in a Navicyte Side-By-Side diffusion apparatus with accessories such as water circulator, flowmeter and humidifier.
(§4) The segments were mounted without stripping on a preheated acrylic half-cell and the cell assembly was then placed in a heated block after joining the other half-cell. The exposed surface area was 1.78 cm^2 and the reservoir volume was 6 mL. The donor and receiver compartments were immediately filled with pre-warmed oxygenated Krebs bicarbonate buffer adjusted to pH 7.4 with NaOH or HCl. The composition of buffer used is shown in Table 11, which illustrates the composition of stock solutions used for preparation of Krebs Bicarbonate solution. The stock solutions can be made in 100 mL or 1 L volume and stored in a refrigerator for one month. For preparation of working buffer, 50 mL of each stock solution above is added to a 1 L volumetric flask containing 750 mL of water. The pH was adjusted to 7.4 when necessary. […]
(§5) For the marker studies, the concentration of ^14C mannitol in donor compartment was 3.5×10^−5 μM and that of H testosterone was 4×10^−2 μM. The integrity of the tissues was determined by calculating the permeability coefficient (Papp) of mannitol. […] Aliquots of 10 μL were taken from the mucosal side at the beginning and end of the experiment and analyzed by a HPLC method discussed later. […] The radioactive samples were analyzed by using a liquid scintillation counter.
(§6) The results of experiments performed at least in triplicate are presented as mean±SE. Statistical differences between permeability in the presence of DkOVM and CkOVM and the means were determined by one-way analysis of variance (ANOVA). […]

[3] = tested on: rat jejunum; assay: in vitro
Text: as §3, §4, §5, §6

[4] = target: T2, trypsin (Bos taurus, UniProt P00760); assay: trypsin mediated degradation of insulin with inhibitors (HPLC); assay type: biochemical; settings: trypsin 0.5 μM
T2 construct: gene PRSS1
T2 sequence (P00760 24-246): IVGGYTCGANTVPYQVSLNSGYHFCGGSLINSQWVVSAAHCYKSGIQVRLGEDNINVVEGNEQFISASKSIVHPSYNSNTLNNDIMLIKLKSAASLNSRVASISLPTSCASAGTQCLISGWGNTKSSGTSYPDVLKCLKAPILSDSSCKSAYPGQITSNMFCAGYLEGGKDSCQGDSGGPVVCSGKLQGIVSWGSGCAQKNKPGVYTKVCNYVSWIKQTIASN
Method: as §1
as §2, with “Workstation. Plots of insulin remaining versus time were generated.” for “Workstation.”

[5] = target: T2, trypsin; assay: Stability of sCT in the presence of trypsin and protease inhibitors; assay type: biochemical
Method: (§7) sCT solutions (50 μM) were incubated at 37° C. in 50 mM Tris buffer containing 0.1 mM calcium chloride (pH 8.0). Degradation profiles generated in the presence of 0.5 μM trypsin and 0.1 μM α-chymotrypsin served as controls. The concentrations were selected on the basis of a reported study (Schilling R. J. and Mitra A. K. 1991). DkOVM and TkOVM were evaluated at different enzyme-to-inhibitor ratios to evaluate their inhibition of sCT degradation. CkOVM and aprotinin were used at 1:1 enzyme-to-inhibitor ratio in order to compare the efficacy of various protease inhibitors used. sCT and enzyme solutions were incubated for 15 min at 37° C. before starting the experiments. Samples were taken after 0, 5, 15, 30 and 60 min and immediately diluted with cold 1% trifluoroacetic acid (TFA) to reduce the pH to 2.5. The samples were analysed at 4° C. by HPLC given below. Plots of sCT remaining against time were generated. […] (amount of sCT (%) remaining after 60 min) were used to compare the efficacy of the ovomucoids. Similar studies were performed with aprotinin. The study was also conducted by incubating 50 μM sCT solutions with 0.5 μM trypsin and 0.1 μM α-chymotrypsin added together and the efficacy of TkOVM was evaluated at various ratios.
(§8) sCT was analyzed by means of our validated HPLC method (Shah R B, et al., 2003). Briefly, a computer controlled Varian Chromatography workstation consisting of the following components was used: Two Dynamax SD-200 pumps, an AI-200A autosampler fitted with a 100 μl injection loop, a Dynamax UV-1 detector and Star 5.3 chromatography software. Room temperature was maintained for the column and chromatographic separations were carried out on a C-18 Vydac 218MS54 column (5 μm, 4.6×250 mm) with a pore size of 300 Å. 50 μl of samples were injected into the column which were analyzed by the reversed phase HPLC method. The mobile phase consisted of 0.05% v/v TFA-Water (A) and 0.05% v/v TFA-Acetonitrile (B). The gradient conditions were 20-35% B for 10 min, 35-37% B from 10th to 20th min and 37-20% B from 20th to 25th min at a flow rate of 1 ml/min. […] Concentrations of sCT were quantified from integrated peak areas and calculated by interpolation from an according standard curve.

[6] = target: T1, α-chymotrypsin; assay: Stability of sCT in the presence of α-chymotrypsin and protease inhibitors; assay type: biochemical
Method: as §7, §8

[7] = tested on: rat intestinal segments; assay: Insulin transport across rat intestinal segments (side-by-side diffusion apparatus)
Text: as §3
The segments were mounted without stripping on a preheated acrylic half-cell and the cell assembly was then placed in a heated block after joining the other half-cell. The exposed surface area was 1.78 cm^2 and the reservoir volume was 6 mL. The donor and receiver compartments were immediately filled with pre-warmed oxygenated Krebs bicarbonate buffer adjusted to pH 7.4 with NaOH or HCl. The composition of buffer used is shown in Table 11, which illustrates the composition of stock solutions used for preparation of Krebs Bicarbonate solution. The stock solutions can be made in 100 mL or 1 L volume and stored in a refrigerator for one month. For preparation of working buffer, 50 mL of each stock solution above is added to a 1 L volumetric flask containing 750 mL of water. The pH was adjusted to 7.4 when necessary.
The mucosal buffer consisted of 40 mM mannitol and the serosal buffer consisted of 40 mM glucose. […] Mannitol equalizes the osmotic load between the mucosal and […] buffers and glucose helps to maintain tissue viability. The buffer was circulated by a gas lift (95%O2/5%CO2). The flow rate of gas lift was adjusted to 10±2 mL/min using a flow meter. The tissues were equilibrated for 10 min before the drug solution was added.
For the marker studies, the concentration of ^14C mannitol in donor compartment was 3.5×10^−5 μM and that of H testosterone was 4×10^−2 μM. The integrity of the tissues was determined by calculating the permeability coefficient (Papp) of mannitol. For α-chymotrypsin studies, the enzyme was added immediately after the addition of drug and inhibitor solution to achieve a final concentration of 0.5 μM. Samples (1 mL) were taken from the serosal side at various times up to 180 min and replaced with fresh transport medium. Aliquots of 10 μL were taken from the mucosal side at the beginning and end of the experiment and analyzed by a HPLC method discussed later. […] The radioactive samples were analyzed by using a liquid scintillation counter.
as §6

[8] = target: T1, α-chymotrypsin; assay: Insulin stability in Krebs bicarbonate buffer with α-chymotrypsin and DkOVM over 3 hours; assay type: biochemical; settings: absence of DkOVM
Method: The degradation profiles were generated in the presence of 0.5 μM α-chymotrypsin over a period of 3 hours that served as controls. […] Samples were taken up to 180 min and immediately diluted with cold 1% TFA/TRIS to reduce the pH to 2.5. The samples were analyzed by the RP-HPLC method reported earlier.

[9] = tested on: rat GIT segments; settings: cited from earlier work; for Papp × 10^7 cm/sec of insulin: Rat, Everted gut sac
[10] = tested on: rat GIT segments; settings: cited from earlier work; for Papp × 10^7 cm/sec of insulin: Rat, Ussing technique
[11] = tested on: apical epithelium; settings: Stoll et al. 2000; cited from earlier work
[12] = in vivo; cited from earlier work
[13] = cited from earlier work
[14] = chymotrypsin 0.1 μM, enzyme:inhibitor 1:1

% I60 min (insulin remaining at 60 minutes) ([1]; chymotrypsin + 0.5 mM EDTA, no inhibitor): 0.32 ± 0.33%
Molecule: O=C(O)CN(CCN(CC(=O)O)CC(=O)O)CC(=O)O [EDTA]

Papp at 180 min [2]: 3.46 ± 0.251 ×10⁻⁶ cm/s
^14C Mannitol Permeability × 10^6 cm/sec [3]: 3.465 ± 0.251 × 10^6 cm/sec
^14C Mannitol Ratio ([3]; male, Sprague Dawley, rat, 180 min, pH 7.4): 1.0
Molecule: OC[C@@H](O)[C@@H](O)[C@H](O)[C@H](O)CO [^14C Mannitol, D-[1-^14C] mannitol]

More lines, now with the values behind:

Molecule: C[C@H](CCC(=O)NCC(=O)[O-])[C@H]1CC[C@H]2[C@@H]3[C@H](O)C[C@@H]4C[C@H](O)CC[C@]4(C)[C@H]3C[C@H](O)[C@]12C.[Na+] [NaGC, sodium glycocholate]
% I60 min (insulin remaining at 60 minutes) ([1]; chymotrypsin + 30 mM NaGC, no inhibitor): 4.66 ± 0.8%

Molecule: Aprotinin
% I60 min (insulin remaining at 60 minutes) [1, 14]: 69.65 ± 6.04%
% I60 min (insulin remaining at 60 minutes) ([4]; enzyme:inhibitor 1:1): 97.99 ± 0.08%
Amount (%) of sCT remaining at 60 min (I60) ([5]; trypsin 0.5 μM, enzyme:inhibitor 1:1): 83.36 ± 8.92%
Ratio (half-life versus trypsin alone) ([5]; trypsin:inhibitor 1:1): 199.34
Amount (%) of sCT remaining at 60 min (I60) [6, 14]: 35.87 ± 1.06%
Ratio (half-life versus α-chymotrypsin alone) ([6]; α-chymotrypsin:inhibitor 1:1): 1.82

Molecule: insulin
% I60 min (insulin remaining at 60 minutes) ([1]; insulin 18 μM alone, no enzyme): 100%
insulin degraded in 60 minutes ([1]; α-chymotrypsin, control without inhibitor): more than 90%
% I60 min (insulin remaining at 60 minutes) ([4]; no inhibitor): 68.79 ± 1.85%
cumulative amount of insulin permeated at the end of three hours ([7]; jejunum): 0.04±0.023 IU
Permeability of insulin (P × 10^7 cm/sec) ([7]; rat jejunum, insulin 100 μM + α-chymotrypsin 0.5 μM + DkOVM 0.0 μM): 0.0 × 10^7 cm/sec
Permeability of insulin (P × 10^7 cm/sec) ([7]; rat jejunum, insulin 100 μM alone): 0.922 ± 0.168 × 10^7 cm/sec
Papp of insulin ([7]; rat jejunum, insulin alone): 0.922±0.168 ×10^−7 cm/sec
insulin (%) remaining at the end of 3 hours [8]: negligible
Papp × 10^7 cm/sec of insulin ([9]; Duodenum): 0.78 ± 0.54 × 10^7 cm/sec
Papp × 10^7 cm/sec of insulin ([9]; Ileum): 1.54 ± 0.29 × 10^7 cm/sec
Papp × 10^7 cm/sec of insulin ([9]; Jejunum): 1.385 ± 0.265 × 10^7 cm/sec
reported Papp of insulin from rat jejunum ([9]; Schilling & Mitra 1990): 5±2 ×10^−7 cm/sec
reported Papp of insulin from rat jejunum ([10]; Asada et al. 1995): 12.27±1.73 ×10^−7 cm/sec
Papp × 10^7 cm/sec of insulin ([10]; Colon): 4.05 ± 1.09 × 10^7 cm/sec
Papp × 10^7 cm/sec of insulin ([10]; Duodenum): 4.85 ± 0.99 × 10^7 cm/sec
Papp × 10^7 cm/sec of insulin ([10]; Jejunum): 12.27 ± 1.73 × 10^7 cm/sec
apical epithelial permeability of insulin [11]: 0.032 ×10⁻⁶ cm/s
insulin reaching the liver via the portal vein that undergoes degradation [12]: About 50%
peak time ([13]; pulmonary route): 5 to 60 min
peak time ([13]; subcutaneous route): 6 to 150 min
